The test system of assay [1] is NUGC-4 tumor-bearing mouse model. The assay is described as follows: Anti-tumor effect in NUGC-4 tumor-bearing mouse model. In kind it is in vivo, BALB/c-NUDE mice. As to conditions: NUGC-4, 10 mg/kg single dose intraperitoneal injection, day 32. From the text:
In the present experiment, the BALB/c NUDE mice inoculated with NUGC-4 cells were used for determining the anti-tumor effect of the EGFR/HER3-ADCs.
The female BALB/c-NUDE mice were purchased from Beijing Vital River Laboratory Animal Technology Co., Ltd, with the grade of SPF, the quality control department is Beijing Vital River Laboratory Animal Technology Co., Ltd, and the certificate number was NO.110011230103807533. The mice were domesticated for 3 days after arrival, and then the study began.
NUGC-4 cells were purchased from NIBIOHN (CAT #: JCRB0834) and routinely subcultured in strict accordance with the instructions for subsequent in vivo experiments. The cells were collected by centrifugation, resuspended in sterile PBS and adjusted to a cell density of 20×10^6 cells/ml. A NUGC-4 tumor-bearing mouse model was established by subcutaneous inoculation of 0.2 ml of cell suspension into the right abdominal region of BALB/c-NUDE mice on day 0.
Tumor volume of each mouse was measured 13 days after tumor cell inoculation, the mice with tumor volumes about 200 mm^3 were selected and grouped on average according to their tumor volume (7 mice per group). […] Administrations were conducted on day 13 after inoculation respectively, and the tumor volume and body weight of mice were monitored twice a week. […] Measurement of tumor volume: the maximum long axis (L) and maximum wide axis (W) of the tumor were measured using a vernier caliper, and the tumor volume was calculated as follows: V=L×W^2/2. Body weight was measured using an electronic balance. Table 3. Experimental design

A further assay has as its target T1, human EGFR (human, UniProt P00533 25-645, limits assumed).
T1 construct: Coated at 0.25 ug/mL; also called EGFR antigen
The assay is described as follows: ELISA, EGFR antigen coated on plate, anti-human IgG Fc-HRP detection.

Another assay deals with T2, human HER3 (human, UniProt P21860 20-643, limits assumed).
T2 construct: Coated at 0.25 ug/mL; also called HER3 antigen; ErbB3
The assay is described as follows: ELISA, HER3 antigen coated on plate, anti-human IgG Fc-HRP detection. (An ELISA detects its analyte on a solid surface through an enzyme-linked reagent.)

The subject of assay [2] is human breast cancer cells MDA-MB-453. Description: In vitro cell killing assay (CTG). In kind it is cell-based. As to conditions: MDA-MB-453, 5 days, Example 13.
In assay [3] the test system is human breast cancer cells MCF7. Description: In vitro cell killing assay (CTG). It counts as cell-based. As for the experimental part:
After 2-3 passages of the resurrected MCF7 cells, the culture medium was poured out firstly, rinsed with 10 mL PBS once, then the cells were digested with 4mL trypsin, the culture medium was terminated before centrifuged at 400xg for 3min, the supernatant was discarded, and the culture medium was further resuspended for counting. The cell density was adjusted to 3E4/mL, 50 µL of which per well was added into a round bottom low adsorption 96-well plate. The antibody to be detected was diluted in a gradient manner, then 50 µL of which per well was added into the corresponding cells, cultured at 37 °C for 5 days, then the 96-well plate was taken out, the plate was balanced to room temperature, 100 µL of CTG detection solution was added into each well, placed at a shaker at 300 rpm for 20 min, 100 µL of which was absorbed and placed into the white bottom 96-well plate, and the luminescence value was detected by using a multifunctional microplate reader.

For the molecule Patritumab-DXd [reference compound], in assay [1], the TGI (usually how far tumour growth fell short of that in controls) is 51% and the Tumor volume came out at 636 mm^3.

B1: Duligo-LC1-NT3 (bispecific antibody, human IgG1, lambda, L234A L235A, V domains shown)
VH: EVQLVESGGGLVQPGGSLRLSCAASGFTLSGDWIHWVRQAPGKGLEWVGEISAAGGYTDYADSVKGRFTISADTSKNTAYLQMNSLRAEDTAVYYCARESRVSFEAAMDYWGQGTLVTVSS
VL: DIQMTQSPSSLSASVGDRVTITCRASQNIATDVAWYQQKPGKAPKLLIYSASFLYSGVPSRFSGSGSGTDFTLTISSLQPEDFATYYCQQSEPEPYTFGQGTKVEIKG
notes: also called Duoligo-LC1-NT3; duoligo-LC1-NT3
Take B1: in the assay with human EGFR, the Kd (in general, the constant that tells how readily two partners part at equilibrium) turned out to be 0.0352 nM and the “fold decrease in Kd against SIB001-DXd” value was ~2.5 fold. Also, the affinity with human HER3, expressed as Kd, was 0.0257 nM.

B2: Duligo-DXd (conjugate, chains of the INN, looked up)
VH: B1 VH
VL: DIQMTQSPSSLSASVGDRVTITCRASQNIATDVAWYQQKPGKAPKLLIYSASFLYSGVPSRFSGSGSGTDFTLTISSLQPEDFATYYCQQSEPEPYTFGQGTKVEIK
modifications: DXd payload
Regarding B2, in assay [2], the killing effect result is listed as “significantly stronger killing effect than SIB001-DXd”. Besides, in assay [1], the inhibition of tumour growth (TGI) is given as 75% and the Tumor volume is given as 414 mm^3. Also, 0.049 nM corresponded to half-maximal inhibition in assay [3] (MCF7, 5 days) (IC50). The “reduction in IC50” value in assay [3] (MCF7, relative to SIB001-DXd) was “approximately 250 fold”.

Values taken from patent EP4810521A1, “ANTI-EGFR AND -HER3 BISPECIFIC ANTIBODY-DRUG CONJUGATE AND USE THEREOF” (priority 2023, dated 2025).
